Measurements: the supplement of paper PMC5998384

Columns and labels:
[1] = test system: HeLa Kyoto; assay: solubility in G1/S (NP-40 vs SDS abundance) (log2 ratio); higher = more soluble; conditions: cell cycle stage: G1/S
[2] = test system: HeLa Kyoto; assay: melting temperature (median over replicates), in situ; higher = more thermally stable
[3] = test system: HeLa Kyoto; assay: solubility change mitosis vs G1/S (difference of NP-40 vs SDS log2 ratios) (log2 ratio difference); higher = more soluble in mitosis
[4] = test system: HeLa Kyoto; assay: thermal stability score vs G1/S (z-score of summed log2 fold changes over temperatures); higher = more thermally stable than in G1/S
[5] = cell cycle stage: early G1 (4.5 h after nocodazole release)
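Throughout, for melting temperature (median over replicates), in situ: HeLa Kyoto cells synchronized by double thymidine or nocodazole block, proteins quantified by TMT10plex mass spectrometry, three independent biological replicates.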
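Throughout, for solubility change mitosis vs G1/S (difference of NP-40 vs SDS log2 ratios): synchronized HeLa Kyoto cells (double thymidine block for G1/S, nocodazole release for mitosis), protein amounts in NP-40 versus SDS lysates quantified by mass spectrometry, three biological replicates.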
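Throughout, for solubility in G1/S (NP-40 vs SDS abundance): HeLa Kyoto cells arrested at G1/S by double thymidine block, proteins quantified by TMT10plex mass spectrometry in mild NP-40 versus SDS extracts, three biological replicates.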
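Throughout, for thermal stability score vs G1/S (z-score of summed log2 fold changes over temperatures): synchronized HeLa Kyoto cells, proteins quantified by TMT10plex mass spectrometry, three biological replicates, mitosis taken 0.5 h after nocodazole release, G1/S directly after double thymidine block.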

Sequence	solubility in G1/S (log2) [1]	melting temperature ([2]; cell cycle stage: G1/S) [°C]	melting temperature ([2]; cell cycle stage: mitosis) [°C]	solubility change mitosis (log2) [3]	thermal stability score [4, 5]	thermal stability score ([4]; cell cycle stage: mitosis)
MAAETLLSSLLGLLLLGLLLPASLTGGVGSLNLEELSEMRYGIEILPLPVMGGQSQSSDVVIVSSKYKQRYECRLPAGAIHFQREREEETPAYQGPGIPELLSPMRDAPCLLKTKDWWTYEFCYGRHIQQYHMEDSEIKGEVLYLGYYQSAFDWDDETAKASKQHRLKRYHSQTYGNGSKCDLNGRPREAEVRFLCDEGAGISGDYIDRVDEPLSCSYVLTIRTPRLCPHPLLRPPPSAAPQAILCHPSLQPEEYMAYVQRQADSKQYGDKIIEELQDLGPQVWSETKSGVAPQKMAGASPTKDDSKDSDFWKMLNEPEDQAPGGEEVPAEEQDPSPEAADSASGAPNDFQNNVQVKVIRSPADLIRFIEELKGGTKKGKPNIGQEQPVDDAAEVPQREPEKERGDPERQREMEEEEDEDEDEDEDEDERQLLGEFEKELEGILLPSDRDRLRSEVKAGMERELENIIQETEKELDPDGLKKESERDRAMLALTSTLNKLIKRLEEKQSPELVKKHKKKRVVPKKPPPSPQPTEEDPEHRVRVRVTKLRLGGPNQDLTVLEMKRENPQLKQIEGLVKELLEREGLTAAGKIEIKIVRPWAEGTEEGARWLTDEDTRNLKEIFFNILVPGAEEAQKERQRQKELESNYRRVWGSPGGEGTGDLDEFDF [OS9]	0.241	54.4	53.8	-0.128	0.21	-0.468
MAAETQTLNFGPEWLRALSSGGSITSPPLSPALPKYKLADYRYGREEMLALFLKDNKIPSDLLDKEFLPILQEEPLPPLALVPFTEEEQRNFSMSVNSAAVLRLTGRGGGGTVVGAPRGRSSSRGRGRGRGECGFYQRSFDEVEGVFGRGGGREMHRSQSWEERGDRRFEKPGRKDVGRPNFEEGGPTSVGRKHEFIRSESENWRIFREEQNGEDEDGGWRLAGSRRDGERWRPHSPDGPRSAGWREHMERRRRFEFDFRDRDDERGYRRVRSGSGSIDDDRDSLPEWCLEDAEEEMGTFDSSGAFLSLKKVQKEPIPEEQEMDFRPVDEGEECSDSEGSHNEEAKEPDKTNKKEGEKTDRVGVEASEETPQTSSSSARPGTPSDHQSQEASQFERKDEPKTEQTEKAEEETRMENSLPAKVPSRGDEMVADVQQPLSQIPSDTASPLLILPPPVPNPSPTLRPVETPVVGAPGMGSVSTEPDDEEGLKHLEQQAEKMVAYLQDSALDDERLASKLQEHRAKGVSIPLMHEAMQKWYYKDPQGEIQGPFNNQEMAEWFQAGYFTMSLLVKRACDESFQPLGDIMKMWGRVPFSPGPAPPPHMGELDQERLTRQQELTALYQMQHLQYQQFLIQQQYAQVLAQQQKAALSSQQQQQLALLLQQFQTLKMRISDQNIIPSVTRSVSVPDTGSIWELQPTASQPTVWEGGSVWDLPLDTTTPGPALEQLQQLEKAKAAKLEQERREAEMRAKREEEERKRQEELRRQQEEILRRQQEEERKRREEEELARRKQEEALRRQREQEIALRRQREEEERQQQEEALRRLEERRREEEERRKQEELLRKQEEEAAKWAREEEEAQRRLEENRLRMEEEAARLRHEEEERKRKELEVQRQKELMRQRQQQQEALRRLQQQQQQQQLAQMKLPSSSTWGQQSNTTACQSQATLSLAEIQKLEEERERQLREEQRRQQRELMKALQQQQQQQQQKLSGWGNVSKPSGTTKSLLEIQQEEARQMQKQQQQQQQHQQPNRARNNTHSNLHTSIGNSVWGSINTGPPNQWASDLVSSIWSNADTKNSNMGFWDDAVKEVGPRNSTNKNKNNASLSKSVGVSNRQNKKVEEEEKLLKLFQGVNKAQDGFTQWCEQMLHALNTANNLDVPTFVSFLKEVESPYEVHDYIRAYLGDTSEAKEFAKQFLERRAKQKANQQRQQQQLPQQQQQQPPQQPPQQPQQQDSVWGMNHSTLHSVFQTNQSNNQQSNFEAVQSGKKKKKQKMVRADPSLLGFSVNASSERLNMGEIETLDDY [GIGYF2]	-0.0985	49.4	49.8	-0.00842	0.406	0.959
MAAFSKYLTARNSSLAGAAFLLLCLLHKRRRALGLHGKKSGKPPLQNNEKEGKKERAVVDKVFFSRLIQILKIMVPRTFCKETGYLVLIAVMLVSRTYCDVWMIQNGTLIESGIIGRSRKDFKRYLLNFIAAMPLISLVNNFLKYGLNELKLCFRVRLTKYLYEEYLQAFTYYKMGNLDNRIANPDQLLTQDVEKFCNSVVDLYSNLSKPFLDIVLYIFKLTSAIGAQGPASMMAYLVVSGLFLTRLRRPIGKMTITEQKYEGEYRYVNSRLITNSEEIAFYNGNKREKQTVHSVFRKLVEHLHNFILFRFSMGFIDSIIAKYLATVVGYLVVSRPFLDLSHPRHLKSTHSELLEDYYQSGRMLLRMSQALGRIVLAGREMTRLAGFTARITELMQVLKDLNHGKYERTMVSQQEKGIEGVQVIPLIPGAGEIIIADNIIKFDHVPLATPNGDVLIRDLNFEVRSGANVLICGPNGCGKSSLFRVLGELWPLFGGRLTKPERGKLFYVPQRPYMTLGTLRDQVIYPDGREDQKRKGISDLVLKEYLDNVQLGHILEREGGWDSVQDWMDVLSGGEKQRMAMARLFYHKPQFAILDECTSAVSVDVEGYIYSHCRKVGITLFTVSHRKSLWKHHEYYLHMDGRGNYEFKQITEDTVEFGS [ABCD3]	-0.213	52.5	52.3	-0.103	1.37	0.619
MAAGAAEAAVAAVEEVGSAGQFEELLRLKAKSLLVVHFWAPWAPQCAQMNEVMAELAKELPQVSFVKLEAEGVPEVSEKYEISSVPTFLFFKNSQKIDRLDGAHAPELTKKVQRHASSGSFLPSANEHLKEDLNLRLKKLTHAAPCMLFMKGTPQEPRCGFSKQMVEILHKHNIQFSSFDIFSDEEVRQGLKAYSSWPTYPQLYVSGELIGGLDIIKELEASEELDTICPKAPKLEERLKVLTNKASVMLFMKGNKQEAKCGFSKQILEILNSTGVEYETFDILEDEEVRQGLKAYSNWPTYPQLYVKGELVGGLDIVKELKENGELLPILRGEN [GLRX3]	0.354	49.6	49.9	-0.111	2.12	1.6
MAAGFGRCCRVLRSISRFHWRSQHTKANRQREPGLGFSFEFTEQQKEFQATARKFAREEIIPVAAEYDKTGEYPVPLIRRAWELGLMNTHIPENCGGLGLGTFDACLISEELAYGCTGVQTAIEGNSLGQMPIIIAGNDQQKKKYLGRMTEEPLMCAYCVTEPGAGSDVAGIKTKAEKKGDEYIINGQKMWITNGGKANWYFLLARSDPDPKAPANKAFTGFIVEADTPGIQIGRKELNMGQRCSDTRGIVFEDVKVPKENVLIGDGAGFKVAMGAFDKTRPVVAAGAVGLAQRALDEATKYALERKTFGKLLVEHQAISFMLAEMAMKVELARMSYQRAAWEVDSGRRNTYYASIAKAFAGDIANQLATDAVQILGGNGFNTEYPVEKLMRDAKIYQIYEGTSQIQRLIVAREHIDKYKN [ACADM]	0.248	54.7	54.7	-0.0323	-1.04	-2.26
MAAGGGGGSSKASSSSASSAGALESSLDRKFQSVTNTMESIQGLSSWCIENKKHHSTIVYHWMKWLRRSAYPHRLNLFYLANDVIQNCKRKNAIIFRESFADVLPEAAALVKDPSVSKSVERIFKIWEDRNVYPEEMIVALREALSTTFKTQKQLKENLNKQPNKQWKKSQTSTNPKAALKSKIVAEFRSQALIEELLLYKRSEDQIELKEKQLSTMRVDVCSTETLKCLKDKTGGKKFSKEFEEASSKLEEFVNGLDKQVKNGPSLTEALENAGIFYEAQYKEVKVVANAYKTFANRVNNLKKKLDQLKSTLPDPEESPVPSPSMDAPSPTGSESPFQGMGGEESQSPTMESEKSATPEPVTDNRDVEDMELSDVEDDGSKIIVEDRKEKPAEKSAVSTSVPTKPTENISKASSCTPVPVTMTATPPLPKPVNTSLSPSPALALPNLANVDLAKISSILSSLTSVMKNTGVSPASRPSPGTPTSPSNLTSGLKTPAPATTTSHNPLANILSKVEITPESILSALSKTQTQSAPALQGLSSLLQSVTGNPVPASEAASQSTSASPANTTVSTIKGRNLPSSAQPFIPKSFNYSPNSSTSEVSSTSASKASIGQSPGLPSTTFKLPSNSLGFTATHNTSPAAPPTEVTICQSSEVSKPKLESESTSPSLEMKIHNFLKGNPGFSGLNLNIPILSSLGSSAPSESHPSDFQRGPTSTSIDNIDGTPVRDERSGTPTQDEMMDKPTSSSVDTMSLLSKIISPGSSTPSSTRSPPPGRDESYPRELSNSVSTYRPFGLGSESPYKQPSDGMERPSSLMDSSQEKFYPDTSFQEDEDYRDFEYSGPPPSAMMNLEKKPAKSILKSSKLSDTTEYQPILSSYSHRAQEFGVKSAFPPSVRALLDSSENCDRLSSSPGLFGAFSVRGNEPGSDRSPSPSKNDSFFTPDSNHNSLSQSTTGHLSLPQKQYPDSPHPVPHRSLFSPQNTLAAPTGHPPTSGVEKVLASTISTTSTIEFKNMLKNASRKPSDDKHFGQAPSKGTPSDGVSLSNLTQPSLTATDQQQQEEHYRIETRVSSSCLDLPDSTEEKGAPIETLGYHSASNRRMSGEPIQTVESIRVPGKGNRGHGREASRVGWFDLSTSGSSFDNGPSSASELASLGGGGSGGLTGFKTAPYKERAPQFQESVGSFRSNSFNSTFEHHLPPSPLEHGTPFQREPVGPSSAPPVPPKDHGGIFSRDAPTHLPSVDLSNPFTKEAALAHAAPPPPPGEHSGIPFPTPPPPPPPGEHSSSGGSGVPFSTPPPPPPPVDHSGVVPFPAPPLAEHGVAGAVAVFPKDHSSLLQGTLAEHFGVLPGPRDHGGPTQRDLNGPGLSRVRESLTLPSHSLEHLGPPHGGGGGGGSNSSSGPPLGPSHRDTISRSGIILRSPRPDFRPREPFLSRDPFHSLKRPRPPFARGPPFFAPKRPFFPPRY [RPRD2]	-0.0214	48	49.2	0.0816	2.07	4.95
MAAGGGGSCDPLAPAGVPCAFSPHSQAYFALASTDGHLRVWETANNRLHQEYVPSAHLSGTCTCLAWAPARLQAKESPQRKKRKSEAVGMSNQTDLLALGTAVGSILLYSTVKGELHSKLISGGHDNRVNCIQWHQDSGCLYSCSDDKHIVEWNVQTCKVKCKWKGDNSSVSSLCISPDGKMLLSAGRTIKLWVLETKEVYRHFTGHATPVSSLMFTTIRPPNESQPFDGITGLYFLSGAVHDRLLNVWQVRSENKEKSAVMSFTVTDEPVYIDLTLSENKEEPVKLAVVCRDGQVHLFEHILNGYCKKPLTSNCTIQIATPGKGKKSTPKPIPILAAGFCSDKMSLLLVYGSWFQPTIERVALNSREPHMCLVRDISNCWAPKVETAITKVRTPVMNSEAKVLVPGIPGHHAAIKPAPPQTEQVESKRKSGGNEVSIEERLGAMDIDTHKKGKEDLQTNSFPVLLTQGLESNDFEMLNKVLQTRNVNLIKKTVLRMPLHTIIPLLQELTKRLQGHPNSAVLMVQWLKCVLTVHASYLSTLPDLVPQLGTLYQLMESRVKTFQKLSHLHGKLILLITQVTASEKTKGATSPGQKAKLVYEEESSEEESDDEIADKDSEDNWDEDEEESESEKDEDVEEEDEDAEGKDEENGEDRDTASEKELNGDSDLDPENESEEE [WDR43]	-1.29	58.6	55.7	0.783	-1.7	-6.5
MAAGIVASRRLRDLLTRRLTGSNYPGLSISLRLTGSSAQEEASGVALGEAPDHSYESLRVTSAQKHVLHVQLNRPNKRNAMNKVFWREMVECFNKISRDADCRAVVISGAGKMFTAGIDLMDMASDILQPKGDDVARISWYLRDIITRYQETFNVIERCPKPVIAAVHGGCIGGGVDLVTACDIRYCAQDAFFQVKEVDVGLAADVGTLQRLPKVIGNQSLVNELAFTARKMMADEALGSGLVSRVFPDKEVMLDAALALAAEISSKSPVAVQSTKVNLLYSRDHSVAESLNYVASWNMSMLQTQDLVKSVQATTENKELKTVTFSKL [ECH1]	0.165	53.4	53.5	-0.00393	-1.52	-2.22
